{"source": "the DeepSol protein solubility set"}
{"test": "soluble on expression in E. coli; label from the status in PepcDB or PDB records"}
{"sequence": "MGSDKIHHHHHHMRILLTGIPSYLQRTVSGVSGAEVRHRPYFDEVRTKKELIEQVKKIANTGNYLIGEGAAHALRGHDVTYLPFWHLVNSRNSDEAYESLNEEFDICVFASANLLRPGYSADLEAEVFEKLKMPVVIMGIGIQRREGLKENLPAGTLKFLEVLRNKESFFLTRGYFTAEFLREQGMKFVKPTGCPSLFFAPAEMKRSLAALANPELASSQKIAFGGYLGSVADTIVDAHALLKPDSVASYVIQDEVVAYNLSLPVDDDLPVYDRASGRITGQTAYKHSEKWQRKHELLVFFDTNQWRSWVSARDLCFGRRFHGCIIGMQAGVPSLMIAVDDRMREMLEFIGFPYMEAAVWNREQDRKAYLASFLSKIDSQAVIDRYSACETNFRNALAHVGL", "soluble on expression in E. coli": "not soluble"}
{"sequence": "MTVSDRELEECIRALLDARADSASICPSDVARAVAPDDWRPLMEPVREAAGRLADAGEVEVTQKGAVVDPRSARGPIRIRWTRTD", "soluble on expression in E. coli": "soluble"}
{"sequence": "AENAKIKFDGVDVERDSNVINDLVPNVTLSLKKPSSDMVEAKIEPDYEGIKRVLLDFIGAYNEVLAEINIVSSNEDQPNNQKSNIVEELTYLSDSQKEEAYKNLGILRSEFLLKNLKSKLESIIFKPYVTSDPNFSIINQMGVFTNSISSSGGLSRYLRLDEKKFDESIRNNIDNVRELFLYDLNGDRVYDNGIAKMLGDCLSPLVASGGVIYNKIKNYDLKIFNQKNKVEDYKKKYEDRERKVEGELNTLDFTVKRMKD", "soluble on expression in E. coli": "not soluble"}
{"sequence": "MSLEEQLYKRDPVSGAILVPMTVNDQPIEKNGDKMPLKFKLGPLSYQNMAFITAKDKYKLYPVRIPRLDTSKEFSAYVSGLFEIYRDLGDDRVFNVPTIGVVNSNFAKEHNATVNLAMEAILNELEVFIGRVKDQDGRVNRFYELEESLTVLNCLRTMYFILDGQDVEENRSEFIESLLNWINRSDGEPDEEYIEQVFSVKDSTAGKKVFETQYFWKLLNQLVLRGLLSQAIGCIERSDLLPYLSDTCAVSFDAVSDSIELLKQYPKDSSSTFREWKNLVLKLSQAFGSSATDISGELRDYIEDFLLVIGGNQRKILQYSRTWYESFCGFLLYYIPSLELSAEYLQMSLEANVVDITNDWEQPCVDIISGKIHSILPVMESLDSCTAAFTAMICEAKGLIENIFEGEKNSDDYSNEDNEMLEDLFSYRNGMASYMLNSFAFELCSLGDKELWPVAIGLIALSATGTRSAKKMVIAELLPHYPFVTNDDIEWMLSICVEWRLPEIAKEIYTTLGNQMLSAHNIIESIANFSRAGKYELVKSYSWLLFEASCMEGQKLDDPVLNAIVSKNSPAEDDVIIPQDILDCVVTNSMRQTLAPYAVLSQFYELRDREDWGQALRLLLLLIEFPYLPKHYLVLLVAKFLYPIFLLDDKKLMDEDSVATVIEVIETKWDDADEKSSNLYETIIEADKSEGHHHHHH", "soluble on expression in E. coli": "not soluble"}
{"sequence": "MKHLIVVPPRMNLYIKKNLAINDIFREFVANEDLWPYSIDESILDLTHTWRLFGKTPRAVAQLIQHTIRHRLGLYTTVGIGDNPLQAKIALDVYAKHDPNLIGQISYLEHHHHHH", "soluble on expression in E. coli": "not soluble"}
{"sequence": "MTGKSVREVPMTEEILAESIALRLRRDILRGKLVPGTSIKERDNAAEMGVSRTPMREAIRILANEGLVQLRPSRSPIVTQLSLNEVVSFIEVLSALEMLAVTLACERATKIDIAHVRGAERKLATQYDRIDQVERFELDMDFHIALTRASHNQALSDTHMSYLRRLWYARFQSARNRHTKDRVLQQHAALVDAIERRDPTMAQTELSSHLENLRINVHAYFERAEREQLQLKNSA", "soluble on expression in E. coli": "not soluble"}
{"sequence": "MKLRRSMLFVPGSNAAMLSNSFIYKPDSIMFDLEDAVALKEKDSARLLVAHALQHPLYKEIETVVRVNPLDSEFGLLDLNSVVRAGVDVVRMPKTESAQDVLDMDHAITEIEKACGREAGSTKMLAAIESPLGITQANQIAFASKRLIGIALGAEDYVRNLKTERSPEGIELLFARCSILQAARAAGIQAFDTVYSNANNEEGFLKEAALIKQLGFDGKSLINPRQIELLHNLFAPTQKDVEQAKRIIEAAVEAERQGAGVVSLNGKMIDAPIIDRAKLVLERAKSGIREELEHHHHHH", "soluble on expression in E. coli": "soluble"}
{"sequence": "MPGKNEYAVESLLTVGNGFLGLRGTTPEMTISDDHYPATYIAGLYNTAASEVAGQVVENEDFVNAPDNQHIALKIGDATDWLTISPDTLQQLHRQLNLKTGLFVAEMILKDADNQQIKLTTKKIANMAQPNDYHLQYTFEPLNFSAPITLKTVTDGSVYNYNVARYRNLTAKHFQVTALSAQENKTVIEVCTNQSNLSVRETSLITGDFFEKEAITIQEEAEKIAQVVTVMAHQGTRYTLEKQVFVQASHAEQSWQVPFTPKDSFAAAAQESARAWQTLWQQANITVTGDLMSQKLLRIHSYHLLASASPFSNQAQALDVSITARGLHGEAYRGHIFWDEIFILPFYIQHYPDTAKQLLLYRYHRLEKAKENAAASQYRGAMYPWQSGRDGRETTQKLHLNPLNGHWGEDHSILQRHVSLAIAYNAWLYWHSTQDHEFMKQYGGEMLLEIAQFWNSAATLDDATGRFFIDKVMGPDEFHEGYPDQAESGLKNNAYTNLMVVWLFEELTNILALFSEEEQAQLFAKTQTTSADLARMQQIQNSLEIEVNSDGIIAQYEGYFGLKEIDWTAMKEKYGNIYRMDRILKAEGESPDDYKVAKQADTLMLFYNLDKTRVDQILEDLGYQLPADYLEKNLLYYLKRTSHGSTLSRIVHAQLAEMAQFHELSWQLYQEALYSDYRDIQGGTTAEGIHTGVMAATIHVTLATYAGVDTRQNELSICPNLPEHWQALAFQFIHQGVTYQFSLTQTSVTITADRDTQLLVQGALIPLTAERPKEVHYQ", "soluble on expression in E. coli": "not soluble"}
{"sequence": "MCARIQQLPVFFIFILYGSCATTKRNIYVLAINKLMEQQIRKYESFNDLPADCKKLFDSGEKDSFDLSRDWFLLLETTVIRQTKEICIFTLEIEGVTQGIWPTLLQKKGKLSLRQISSFTCFYSSLYQPLISSSLTVDKLADCLRWILSDTRTDVLRFDIMDPSQSSFNLHEQALKKIGFKTDRFFCWGNWYLPVNNQPFSVYLQNLSSRVRNTLERRKKKFLAGGHGKLEILTTHDKLPIAIQAWEKIYNASWKIPEPYPEFMPSLISLCAAKGWLRLGIAYYDEEPIAAQLWIVNQGRAAIYKLAYDEKFAHLSPGTILTAHLMQHAIDVDKVHEVDYLTGDDAYKKDWMSHRRERLGLVAYNLRSFWGLIGISKHIAGKIRKKILKSLK", "soluble on expression in E. coli": "not soluble"}
{"sequence": "MRPTRKCEFCGKTFVPRSGMQKYCSEECQAETKRLRKKRQQDLINGIEPIMDLQHQEYLTFSKAAILMGCTRQYIYKLVANGKLKASRLSSRMAFVRKADIEKMFEGHPYKRVVPASKSKLSKKAKAEKPTQNQEPTKGKEENDVLDYYSGEEVMSIYKVKKSWLYTSAKRNQIPMCRIAGKNYYSKRHIDEFFGTAVDLNSITEWVTADDVEEAFSMSKSALRAYTYRHKIPTKREYGRTYYSKEHLEELRRTDLMSDDSYYTTEQVQQIYGLTSANICHIVRVHHISKVKVGVKNLLLKTDVERAMAERAAKGL", "soluble on expression in E. coli": "not soluble"}
{"sequence": "SDSAWTALDMETQTMLKTAIKDPKTVDLEKLSNAVVEHSLKDLSFCKDAGRMCYAVVQAEAQKTASSVFRRNLLNRLQQEFIAREETRKRSMQEWVCVVTFICSIFDYIKVNNSPIAALVDPVYDCLFRLAQPDSLMNEEEVDCLVVQLHRVGEQLEQTNSERMNQLFYLLRDGFLLQEDLSSMTRLLLLEILEFRASGWTLSETAHKYYYSEVAD", "soluble on expression in E. coli": "soluble"}
{"sequence": "VIIDTSALLAYFDAAEPDHAAVSECIDSSADALVVSPYVVAELDYLVATRVGVDAELAVLRELAGGAWELANCGAAEIEQAARIVTKYQDQRIGIADAANVVLADRYRTRTILTLDRRHFSALRPIGGGRFTVIP", "soluble on expression in E. coli": "not soluble"}
{"sequence": "MGKVNVAKLRYMSRDDFRVLTAVEMGMKNHEIVPGSLIASIASLKHGGCNKVLRELVKHKLIAWERTKTVQGYRLTNAGYDYLALKTLSSRQVVESVGNQMGVGKESDIYIVANEEGQQFALKLHRLGRTSFRNLKNKRDYHKYRHNVSWLYLSRLSAMKEFAYMKALYERKFPVPKPIDYNRHAVVMELINGYPLCQIHHVEDPASVYDEAMELIVKLANHGLIHGDFNEFNLILDESDHITMIDFPQMVSTSHPNAEWYFDRDVKCIKDFFMKRFSYESELFPTFKDIRREDTLDVEVSASGYTKEMQADDELLHPLGPDDKNIETKEGSEFSFSDGEVAEKAEVYGSENESERNCLEESEGCYCRSSGDPEQIKEDSLSEESADARSFEMTEFNQALEEIKGQVVENNSVTEFSEEKNRTENYNRQDGQRVQGGVPAGSDEYEDECPHLIALSSLNREFRPFRDEENVGAMNQYRTRTLSITSSGSAVSCSTIPPELVKQKVKRQLTKQQKSAVRRRLQKGEANIFTKQRRENMQNIKSSLEAASFWGE", "soluble on expression in E. coli": "not soluble"}
{"sequence": "MQKHFDCVLKHLLSRCCARRRESSFRPAPAGKVFLD", "soluble on expression in E. coli": "not soluble"}
{"sequence": "MPESTNFTEEITQWVESLPNWGKAAVAGGVALAVYIPYKFMATRPRKSPLNENWKPDVVYLYQFPRARLLPNLSPFCMKVETWLRMSDITYEIPPCSLSTRSQEGTLPFVELNGKEYYDSSFILRDIDQVIKHTSLDDHLSAEQKATSRAFEAMSEKSLAISACYYRMENVEKMLDQFDPKLFGIFGFLFKLIGSRTYVSALLRRITGSDIGFHSREDIINIGSEDLKAISKYLGNKHYFHGFKPTKVDACIFSHLCQIYYAPYTSEHRDLIDGECKNLAEYVERIKNRFYPDWDDVTTKFSTDTSNWKKRHVARNGNGKH", "soluble on expression in E. coli": "not soluble"}
{"sequence": "MGSDKIHHHHHHMKFTDIEYFDKLSELESFSKTAIFFNVSQPTISFAIQRLENEMKKTLINRNQSHGEISLTEAGKVFEKHAKKILQEVVAAHEEIDRMNQPTIEFGLPQIIGNYYLPKLVKHFVGNPFFQNVATNEAGSNLLLGALKNRRLDLAIISSVEPVKIEGLETIEIDRKKYSIVVNKDNPLAKQKKVSFEDLADEKFVSLKEGNVHPIAFRKLEETYNVYPKIIYETPDINILKKMIAEKTGIGFIVEIAVEKQDNLATLELSNEKVPEFIISFVYKKDLQIPGIKRIVEELRNNSVFDQDR", "soluble on expression in E. coli": "not soluble"}
{"sequence": "MTSIQQRAELQRRIWQIANDVRGTVDGWDFKQYVLGALFYRFISENFAAHMEAGDDGIRYAELPDSVITPELKDDAIKTKGYFIYPSQLFANVVARANTNDSLNTDLAAIFTAIESSANGYPSEQDIKGLFADFDTTSNRLGNTVKDKNQRLAAVLKGVAELDFGPFDDAHIDLFGDAYEFLISNYAANAGKSGGEFFTPQHVSRLIARLALHGQKSVNKIYDPACGSGSLLLQAKKPFDERLIEDGFFGQESNHTTYNLARMNMFLHNINYDKFNIQLGNTLLEPHFADEKPFDAIVSNPPYSVKWIGSDDPTLINDERFAPAGVLAPKSKADFAFVLHALHYLSAKGRAAIVCFPGIFYRGGAEAKIRQYLVDNNYVETVIALAPNLFFGTTIAVNILVLSKHKPDTTTQFIDASALFKKETNNNVLLDEHIEQIMAVFASKEEVPHVAQSVPLERIAANNYNLSVSSYVEARDTREVVDIAQLNAELKTTVARIDELRKQIDAIVAEIEGEEDEA", "soluble on expression in E. coli": "soluble"}
{"sequence": "MNSILSLIGRDTELFHQDINANEKELQSVVSQSRFLVLGGAGSIGQAVTKEIFKRNPQKLHVVDISENNMVELVRDIRSSFGYINGDFQTFALDIGSIEYDAFIKADGQYDYVLNLSALKHVRSEKDPFTLMRMIDVNVFNTDKTIQQSIDAGAKKYFCVSTDKAANPVNMMGASKRIMEMFLMRKSEEIAISTARFANVAFSDGSLLHGFNQRIQKNQPIVAPNDIKRYFVTPQESGELCLMSCIFGENRDIFFPKLSEALHLISFADIAVKYLKQLGYEPHLCESEDEARELAKTLPAQGKWPCLFTSSDTTGEKDFEEFFTDKETLDMARFDNLGIIKNDSLYQQELLELFEQKIGQMKTDRQWTKEEIVQLFFIMIPDFGHKETGKYLDSKM", "soluble on expression in E. coli": "soluble"}
